{"source": "paper PMC4954776", "about": "(Nature chemical biology, 2013)", "key": {"AUC [1]": {"molecular_target": "the molecule itself", "assay": "AUC"}, "AUC [2]": {"molecular_target": "the molecule itself", "assay": "AUC", "remark": "listed apart in the source"}}, "note": "Where two headings read alike, the source gives them in different places."}
{"protein": "BRAF^444-723 kinase domain with 16 solubilization mutations (domain or fragment) RDSSDDWEIPDGQITVGQRIGSGSFGTVYKGKWHGDVAVKMLNVTAPTPQQLQAFKNEVGVLRKTRHVNILLFMGYSTKPQLAIVTQWCEGSSLYHHLHASETKFEMKKLIDIARQTARGMDYLHAKSIIHRDLKSNNIFLHEDNTVKIGDFGLATVKSRWSGSHQFEQLSGSILWMAPEVIRMQDSNPYSFQSDVYAFGIVLYELMTGQLPYSNINNRDQIIEMVGRGSLSPDLSKVRSNCPKRMKRLMAECLKKKRDERPSFPRILAEIEELARELSG", "values": [{"measurement": "Kd", "setting": "AUC [1]", "value": "> 25", "unit": "µM"}, {"measurement": "Kd", "setting": "AUC [2]", "value": "< 0.78", "unit": "µM"}]}
